Test results from paper PMC5040590, “A model for regulation by SynGAP-α1 of binding of synaptic proteins to PDZ-domain 'Slots' in the postsynaptic density” (eLife, 2016).

Biological target: CaM-Sepharose 4B (calmodulin on Sepharose resin) (UniProt P62157 1-149)
Assay: pull-down; equilibrium binding of purified synGAP (1-500 nM, 300 µl) to 50 µl CaM-Sepharose 4B, 60 min; 50 mM Tris pH 7.5, 200 mM NaCl, 5 mM TCEP, 2 mM CaCl2; bound protein by quantitative immunoblot; hyperbolic fit
Conditions: both partners purified

B1: sr-synGAP (residues 103-725) (domain or fragment)
chain: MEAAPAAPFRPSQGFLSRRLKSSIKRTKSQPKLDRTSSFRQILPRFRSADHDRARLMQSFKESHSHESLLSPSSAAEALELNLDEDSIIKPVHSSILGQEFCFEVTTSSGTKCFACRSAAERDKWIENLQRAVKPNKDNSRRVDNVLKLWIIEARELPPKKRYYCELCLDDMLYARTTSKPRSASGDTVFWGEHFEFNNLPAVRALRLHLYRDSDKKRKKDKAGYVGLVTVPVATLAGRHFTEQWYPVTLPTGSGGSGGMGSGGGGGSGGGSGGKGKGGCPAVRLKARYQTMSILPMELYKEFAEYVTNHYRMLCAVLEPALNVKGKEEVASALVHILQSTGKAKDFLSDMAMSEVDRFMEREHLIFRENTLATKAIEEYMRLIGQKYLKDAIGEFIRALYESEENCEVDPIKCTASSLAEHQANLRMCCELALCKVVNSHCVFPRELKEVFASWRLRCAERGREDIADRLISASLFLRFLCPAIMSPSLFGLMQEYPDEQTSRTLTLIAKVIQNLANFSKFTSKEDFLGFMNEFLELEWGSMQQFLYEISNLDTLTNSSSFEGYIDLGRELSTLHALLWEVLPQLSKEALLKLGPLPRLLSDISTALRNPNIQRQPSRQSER
Kd: 210 ± 30 nM
